Experimental data taken from patent US20230038638A1, “COMPLEMENT FACTOR I-RELATED COMPOSITIONS AND METHODS” (published 2023).
Several values for one entry are separate records, joined by “and”; a condition that tells them apart may be missing. Equal entries are not always repeated.

Key:
[1] = target: soluble human C3b (human) (UniProt P01024)
[2] = target: T1, human C4b (human) (UniProt P0C0L4)
T1 sequence: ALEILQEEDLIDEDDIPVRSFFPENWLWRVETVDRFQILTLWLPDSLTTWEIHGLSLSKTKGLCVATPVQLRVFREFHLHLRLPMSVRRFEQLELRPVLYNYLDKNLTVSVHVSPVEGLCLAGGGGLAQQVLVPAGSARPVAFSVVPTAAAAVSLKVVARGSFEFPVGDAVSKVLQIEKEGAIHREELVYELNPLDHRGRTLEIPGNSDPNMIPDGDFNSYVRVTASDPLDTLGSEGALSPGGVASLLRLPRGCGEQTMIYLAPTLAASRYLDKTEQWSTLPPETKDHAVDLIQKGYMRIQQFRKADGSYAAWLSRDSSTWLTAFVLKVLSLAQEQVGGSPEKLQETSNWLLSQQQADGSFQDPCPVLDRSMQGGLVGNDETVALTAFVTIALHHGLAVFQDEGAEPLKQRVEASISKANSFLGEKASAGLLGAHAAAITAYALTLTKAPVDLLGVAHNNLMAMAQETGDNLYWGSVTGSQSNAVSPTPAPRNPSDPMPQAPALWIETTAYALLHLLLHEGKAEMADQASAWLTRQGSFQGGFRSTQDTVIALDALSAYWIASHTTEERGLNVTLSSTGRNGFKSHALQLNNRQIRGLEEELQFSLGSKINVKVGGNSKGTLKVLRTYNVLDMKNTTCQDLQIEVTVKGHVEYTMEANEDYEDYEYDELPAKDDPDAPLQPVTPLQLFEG

| Substance | iC3b Screen Ref Fold (fold of reference) [1] | C4b Screen Ref Fold (fold of reference) [2] | iC3b Screen Ref Fold (fold of CFI-HSA wild type) [1] | C4b Screen Ref Fold (fold of CFI-HSA wild type) [2] |
| --- | --- | --- | --- | --- |
| CFI-HSA variant E461G (enzyme) | 0.94 | 0.31 |  |  |
| CFI-HSA variant E461N (enzyme) | 1.15 | 2.52 |  |  |
| CFI-HSA variant E461P (enzyme) | 0.02 | -0.01 |  |  |
| CFI-HSA variant E461Q; S507A (enzyme) |  |  | -0.04 | -0.01 |
| CFI-HSA variant E461S (enzyme) | 0.95 | 1.32 |  |  |
| CFI-HSA variant E461W (enzyme) | 0.67 | 0.8 |  |  |
| CFI-HSA variant E461Y (enzyme) | 0.99 | 2.38 |  |  |
| CFI-HSA variant E530F; F537K (enzyme) |  |  | 0.03 | 0 |
| CFI-HSA variant E530F; K504R (enzyme) |  |  | 1.14 | 0.05 |
| CFI-HSA variant E530F; P558S (enzyme) |  |  | 1.4 and 1.38 | 0.34 and 0.16 |
| CFI-HSA variant E530F; S507A (enzyme) |  |  | -0.04 | 0.13 |
| CFI-HSA variant E530K (enzyme) | 0.96 | 0.19 |  |  |
| CFI-HSA variant E530Y; P558S (enzyme) |  |  | 1.62 | 0.43 |
| CFI-HSA variant F537K; K504R (enzyme) |  |  | 1.06 | 0.11 |
| CFI-HSA variant F537K; P558S (enzyme) |  |  | 1.18 | 0.38 |
| CFI-HSA variant F537K; S507A (enzyme) |  |  | -0.04 | -0.09 |
| CFI-HSA variant F559L (enzyme) | 1.54 | 0.73 |  |  |
| CFI-HSA variant G344K (enzyme) | 0.16 | 0.36 |  |  |
| CFI-HSA variant G344K; Y408L; N531G (enzyme) | 0.93 | 1.2 |  |  |

| Substance | iC3b Screen Ref Fold (fold of reference) [1] | C4b Screen Ref Fold (fold of reference) [2] | iC3b Screen Ref Fold (fold of CFI-HSA wild type) [1] | C4b Screen Ref Fold (fold of CFI-HSA wild type) [2] |
| --- | --- | --- | --- | --- |
| CFI-HSA variant G344R (enzyme) | 0.56 | 0.74 |  |  |
| CFI-HSA variant G344R; Y408L; N531G (enzyme) | 0.98 | 3.03 |  |  |
| CFI-HSA variant G344Y (enzyme) | 0.43 | 1.93 |  |  |
| CFI-HSA variant G406A; D425K; E457G; E461Q; N531G (enzyme) |  |  | 0.18 | 3.17 |
| CFI-HSA variant G406A; Y403F (enzyme) |  |  | 1.15 | 1.47 |
| CFI-HSA variant G406A; Y408L (enzyme) | 0.75 | 0.68 |  |  |
| CFI-HSA variant G406D; P535A (enzyme) | 0.13 | 0.95 |  |  |
| CFI-HSA variant G406D; Y408L; P535A (enzyme) | 0.23 | 0.38 |  |  |
| CFI-HSA variant G469L (enzyme) | 0 | 0.04 |  |  |
| CFI-HSA variant G469L; R456N; E457T; K458A (enzyme) | 0 | -0.07 |  |  |
| CFI-HSA variant G469L; R456N; K458A (enzyme) | 0 | -0.07 |  |  |
| CFI-HSA variant G469L; R456N; K458A; E461G (enzyme) | 0 | -0.03 |  |  |
| CFI-HSA variant G469L; R456N; K458A; E461G; F537K (enzyme) | 0.01 | -0.02 |  |  |
| CFI-HSA variant H383G (enzyme) |  |  | 0.02 | -0.02 |
| CFI-HSA variant I317D-R318D-R319D-K320D-R321K; Y408L; N531G; E457G; E461Q; R462K; F464Y (enzyme) | 0.01 | -0.02 |  |  |
| CFI-HSA variant I322T (enzyme) | 0.01 | 0.03 |  |  |
| CFI-HSA variant I345G (enzyme) | -0.01 | 0.16 |  |  |
| CFI-HSA variant I382G (enzyme) |  |  | -0.03 | 0.33 |
| CFI-HSA variant I389G (enzyme) |  |  | -0.03 | 0 |

| Substance | iC3b Screen Ref Fold (fold of reference) [1] | C4b Screen Ref Fold (fold of reference) [2] | iC3b Screen Ref Fold (fold of CFI-HSA wild type) [1] | C4b Screen Ref Fold (fold of CFI-HSA wild type) [2] |
| --- | --- | --- | --- | --- |
| CFI-HSA variant I391G (enzyme) |  |  | 0.01 | 0.03 |
| CFI-HSA variant I560V (enzyme) | 1.31 | 1.27 |  |  |
| CFI-HSA variant K14A; Y20F; D26A; R35A; E38A (enzyme) | 0.11 | 0.15 |  |  |
| CFI-HSA variant K312A (enzyme) | 0.84 | 0.09 |  |  |
| CFI-HSA variant K312A; R314A (enzyme) | 0.48 | 0.58 |  |  |
| CFI-HSA variant K340G (enzyme) | -0.01 | 0.15 |  |  |
| CFI-HSA variant K340G; I345G (enzyme) | 0 | 0.14 |  |  |
| CFI-HSA variant K387G (enzyme) |  |  | 0.23 | 0.37 |
| CFI-HSA variant K418G (enzyme) | 0.39 | 0.69 |  |  |
| CFI-HSA variant K419G (enzyme) |  |  | 0.78 | 0.21 |
| CFI-HSA variant K458A (enzyme) | 0.71 | 0.11 |  |  |
| CFI-HSA variant K504R; P558S (enzyme) |  |  | 1.19 | 0.17 |
| CFI-HSA variant K504R; S507A (enzyme) |  |  | -0.02 | 0.18 |
| CFI-HSA variant L304G; P305G; K306G; L307G; S308G (enzyme) | 0.56 | 0 |  |  |
| CFI-HSA variant L386G (enzyme) |  |  | 0.54 | 0.07 |
| CFI-HSA variant N52Q; N159Q (enzyme) |  |  | 1.39 | 0.56 |
| CFI-HSA variant N422K; E457G; E461Q; N531G (enzyme) |  |  | 2.02 | 3.52 |
| CFI-HSA variant N422K; S507A (enzyme) |  |  | -0.03 | 0.03 |
